We go through 3 molecules from publication doi:10.1101/2022.10.13.511954 (bioRxiv, 2022).

Read-outs that look alike come from different tables or passages of the source.

For test [1], the target named is T1, (MBP)2-WRC, human WAVE regulatory complex (human, UniProt Q7L576 1-1253; Q9Y2A7 1-1128; Q92558 1-178; Q9NYB9 1-158; Q8WUW1 1-75). The test can be described thus: pull-down.
In test [2] the target is T1, (MBP)2-WRC, human WAVE regulatory …. The test can be described thus: pull-down. The source holds these as a separate data set.

B1: GST-tagged cytoplasmic domain of DCC (GST-DCC^cyto) (domain or fragment, human, UniProt P43146 1123-1447, looked up)
chain: RRSSAQQRKKRATHSAGKRKGSQKDLRPPDLWIHHEEMEMKNIEKPSGTDPAGRDSPIQSCQDLTPVSHSQSETQLGSKSTSHSGQDTEEAGSSMSTLERSLAARRAPRAKLMIPMDAQSNNPAVVSAIPVPTLESAQYPGILPSPTCGYPHPQFTLRPVPFPTLSVDRGFGAGRSQSVSEGPTTQQPPMLPPSQPEHSSSEEAPSRTIPTACVRPTHPLRSFANPLLPPPMSAIEPKVPYTPLLSQPGPTLPKTHVKTASLGLAGKARSPLLPVSVPTAPEVSEESHKPTEDSANVYEQDDLSEQMASLEGLMKQLNAITGSAF
Take B1: the binding result in test [1] is “binds”.

B2: GST-DCC^R1343H-cyto (domain or fragment, human, UniProt P43146 1123-1447, looked up)
chain: RRSSAQQRKKRATHSAGKRKGSQKDLRPPDLWIHHEEMEMKNIEKPSGTDPAGRDSPIQSCQDLTPVSHSQSETQLGSKSTSHSGQDTEEAGSSMSTLERSLAARRAPRAKLMIPMDAQSNNPAVVSAIPVPTLESAQYPGILPSPTCGYPHPQFTLRPVPFPTLSVDRGFGAGRSQSVSEGPTTQQPPMLPPSQPEHSSSEEAPSRTIPTACVRPTHPLHSFANPLLPPPMSAIEPKVPYTPLLSQPGPTLPKTHVKTASLGLAGKARSPLLPVSVPTAPEVSEESHKPTEDSANVYEQDDLSEQMASLEGLMKQLNAITGSAF
As to B2, the binding result in test [2] is “binds”.

B3: GST-DCC^ΔWIRS-cyto (domain or fragment, human, UniProt P43146 1123-1447, looked up)
chain: RRSSAQQRKKRATHSAGKRKGSQKDLRPPDLWIHHEEMEMKNIEKPSGTDPAGRDSPIQSCQDLTPVSHSQSETQLGSKSTSHSGQDTEEAGSSMSTLERSLAARRAPRAKLMIPMDAQSNNPAVVSAIPVPTLESAQYPGILPSPTCGYPHPQFTLRPVPFPTLSVDRGFGAGRSQSVSEGPTTQQPPMLPPSQPEHSSSEEAPSRTIPTACVRPTHPLRAAANPLLPPPMSAIEPKVPYTPLLSQPGPTLPKTHVKTASLGLAGKARSPLLPVSVPTAPEVSEESHKPTEDSANVYEQDDLSEQMASLEGLMKQLNAITGSAF
In the case of B3, the binding result in test [2] is recorded as “binds”.
